Experimental findings from PMC3915059 (Archives of biochemistry and biophysics, 2013) are described below.

The target of series [1] is T1, Δ^1-pyrroline-5-carboxylate dehydrogenase (MmP5CDH, ALDH4A1) (Mus musculus, UniProt Q8CHT0).
T1 sequence (Q8CHT0 21-562): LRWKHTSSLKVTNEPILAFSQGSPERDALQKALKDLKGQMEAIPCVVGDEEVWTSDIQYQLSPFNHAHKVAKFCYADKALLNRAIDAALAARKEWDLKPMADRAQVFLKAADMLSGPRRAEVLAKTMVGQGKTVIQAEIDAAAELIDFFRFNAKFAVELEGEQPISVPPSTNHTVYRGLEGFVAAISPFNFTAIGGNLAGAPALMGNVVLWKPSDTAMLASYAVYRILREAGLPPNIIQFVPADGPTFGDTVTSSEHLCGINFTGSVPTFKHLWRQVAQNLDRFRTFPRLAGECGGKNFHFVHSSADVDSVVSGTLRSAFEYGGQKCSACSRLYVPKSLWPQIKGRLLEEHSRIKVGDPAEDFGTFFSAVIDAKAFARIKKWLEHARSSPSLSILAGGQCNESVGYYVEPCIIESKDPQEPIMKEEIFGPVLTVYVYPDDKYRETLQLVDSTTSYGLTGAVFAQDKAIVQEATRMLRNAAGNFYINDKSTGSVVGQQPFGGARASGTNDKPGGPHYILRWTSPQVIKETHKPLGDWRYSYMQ
Put plainly: X-ray crystal structure. The format is biochemical.

For series [2], the target named is T1, Δ^1-pyrroline-5-carboxylate dehydrogenase (MmP5CDH, ALDH4A1). Put plainly: steady-state inhibition kinetics, NADH production at […] nm, competitive model. The format is biochemical.
Substrate in the series “purified protein”: O=CCCC(=O)O
Put plainly: purified protein. As to conditions: NAD+ aldehyde substrate site; 20.0 °C.

For `O=CC(=O)O` [compound 4, glyoxylate], the affinity in series [1] corresponds to a Ki of 0.27 mM.

On to `N[C@@H](CCC(=O)O)C(=O)O` [L-glutamate], for which the affinity in series [2] corresponds to a Ki of 12 mM. This lies in the millimolar range.

B1: Δ^1-pyrroline-5-carboxylate dehydrogenase (MmP5CDH, ALDH4A1) (Mus musculus) (protein)
chain: LRWKHTSSLKVTNEPILAFSQGSPERDALQKALKDLKGQMEAIPCVVGDEEVWTSDIQYQLSPFNHAHKVAKFCYADKALLNRAIDAALAARKEWDLKPMADRAQVFLKAADMLSGPRRAEVLAKTMVGQGKTVIQAEIDAAAELIDFFRFNAKFAVELEGEQPISVPPSTNHTVYRGLEGFVAAISPFNFTAIGGNLAGAPALMGNVVLWKPSDTAMLASYAVYRILREAGLPPNIIQFVPADGPTFGDTVTSSEHLCGINFTGSVPTFKHLWRQVAQNLDRFRTFPRLAGECGGKNFHFVHSSADVDSVVSGTLRSAFEYGGQKCSACSRLYVPKSLWPQIKGRLLEEHSRIKVGDPAEDFGTFFSAVIDAKAFARIKKWLEHARSSPSLSILAGGQCNESVGYYVEPCIIESKDPQEPIMKEEIFGPVLTVYVYPDDKYRETLQLVDSTTSYGLTGAVFAQDKAIVQEATRMLRNAAGNFYINDKSTGSVVGQQPFGGARASGTNDKPGGPHYILRWTSPQVIKETHKPLGDWRYSYMQ
For B1, in “purified protein”, the Km is 26 ± 2 µM, the kcat amounted to 0.16 s⁻¹ and the kcat/Km amounted to 6200 M⁻¹ s⁻¹.
